B1: CDKN2AIP N-terminal-like protein (Homo sapiens), Q96HQ2 (parent)
chain: MVGGEAAAAVEELVSGVRQAADFAEQFRSYSESEKQWKARMEFILRHLPDYRDPPDGSGRLDQLLSLSMVWANHLFLGCSYNKDLLDKVMEMADGIEVEDLPQFTTRSELMKKHQS
partner: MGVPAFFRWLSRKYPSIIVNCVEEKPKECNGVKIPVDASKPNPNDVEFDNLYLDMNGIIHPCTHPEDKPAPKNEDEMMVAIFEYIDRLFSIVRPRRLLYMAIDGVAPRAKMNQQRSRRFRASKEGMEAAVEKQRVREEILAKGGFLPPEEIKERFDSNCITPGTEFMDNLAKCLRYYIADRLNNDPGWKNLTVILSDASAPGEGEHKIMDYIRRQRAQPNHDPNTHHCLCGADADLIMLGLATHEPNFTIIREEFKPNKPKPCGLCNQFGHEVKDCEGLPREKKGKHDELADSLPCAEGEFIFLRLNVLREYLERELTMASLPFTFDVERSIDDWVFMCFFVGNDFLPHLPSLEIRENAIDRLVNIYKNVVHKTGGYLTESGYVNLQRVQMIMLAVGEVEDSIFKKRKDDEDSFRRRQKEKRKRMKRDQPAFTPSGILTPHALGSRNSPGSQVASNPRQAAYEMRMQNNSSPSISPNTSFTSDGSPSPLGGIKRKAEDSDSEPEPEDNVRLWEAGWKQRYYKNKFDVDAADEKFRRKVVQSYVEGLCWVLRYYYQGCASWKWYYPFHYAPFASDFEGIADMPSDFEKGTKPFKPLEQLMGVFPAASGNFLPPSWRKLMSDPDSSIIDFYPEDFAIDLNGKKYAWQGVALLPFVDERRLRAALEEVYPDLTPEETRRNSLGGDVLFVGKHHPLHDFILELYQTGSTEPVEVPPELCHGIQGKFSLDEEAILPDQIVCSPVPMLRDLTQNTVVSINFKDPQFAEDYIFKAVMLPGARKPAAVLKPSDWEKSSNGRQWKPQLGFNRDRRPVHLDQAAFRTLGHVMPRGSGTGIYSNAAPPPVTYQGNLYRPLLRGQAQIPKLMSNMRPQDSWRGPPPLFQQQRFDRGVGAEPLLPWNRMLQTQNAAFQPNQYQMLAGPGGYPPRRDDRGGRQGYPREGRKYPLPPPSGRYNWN
B2: Partner of xrn-2 protein 1 (Caenorhabditis elegans), Q21738 (parent)
chain: MGKLEDVEAEKKLWESDDAWELRKAFMLAHYDDYPKIQLQCLSQLFINVTLLGCEYSQTLMQKIRTMGAGIAANKDRTKTGSYVKASAAKKRQAVKTSDLEGASDESKKVKMEKSPSPVARESFDERLGKLKASLAMTPHHLTGEQMMKTATNSCLMKWHVNKINQKIEITIDRYVAFRHTFSQYCVDPRDCAINTLIESILSCDAAVHEESYEIRFDGVPVDECYAKSVTRRLAKIKSAVSNGAHTVKGLTTYLDAVNMSMIQNTQKLEGWSQQLDLVTADLLLSSRVLSSTECTKPAMATIANQMSEDVCQLILNDKINVINSMKSHSSLAFQ
partner: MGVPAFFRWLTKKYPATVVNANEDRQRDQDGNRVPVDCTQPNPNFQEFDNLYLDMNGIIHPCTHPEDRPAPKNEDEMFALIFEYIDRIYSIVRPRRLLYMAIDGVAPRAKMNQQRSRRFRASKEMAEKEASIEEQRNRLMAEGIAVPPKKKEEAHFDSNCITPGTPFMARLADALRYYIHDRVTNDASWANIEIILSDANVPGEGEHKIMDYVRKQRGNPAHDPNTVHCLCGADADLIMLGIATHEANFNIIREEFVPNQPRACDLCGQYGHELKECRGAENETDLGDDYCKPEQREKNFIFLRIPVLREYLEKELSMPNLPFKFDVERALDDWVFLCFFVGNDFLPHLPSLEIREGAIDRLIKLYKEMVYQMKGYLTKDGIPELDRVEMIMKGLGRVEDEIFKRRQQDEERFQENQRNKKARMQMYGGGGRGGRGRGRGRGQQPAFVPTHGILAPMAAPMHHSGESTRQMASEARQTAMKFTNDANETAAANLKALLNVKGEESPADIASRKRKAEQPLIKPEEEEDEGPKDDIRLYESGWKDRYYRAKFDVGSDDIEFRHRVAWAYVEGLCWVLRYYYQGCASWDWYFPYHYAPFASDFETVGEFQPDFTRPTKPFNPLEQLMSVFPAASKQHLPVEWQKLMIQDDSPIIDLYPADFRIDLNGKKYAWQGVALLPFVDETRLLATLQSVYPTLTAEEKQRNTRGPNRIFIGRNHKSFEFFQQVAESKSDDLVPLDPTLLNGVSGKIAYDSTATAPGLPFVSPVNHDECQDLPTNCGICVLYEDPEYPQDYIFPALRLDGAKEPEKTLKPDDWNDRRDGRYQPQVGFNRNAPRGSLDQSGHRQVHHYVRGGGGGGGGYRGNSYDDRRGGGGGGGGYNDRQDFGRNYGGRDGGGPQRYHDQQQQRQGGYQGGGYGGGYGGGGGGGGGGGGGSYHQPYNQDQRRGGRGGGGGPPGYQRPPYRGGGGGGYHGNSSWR

Variants of: B1
Conditions: with xrn2_human XRN2, Q9H0D6

effect of a mutation on the interaction	Variant
disrupting interaction strength	MVGGEAAAAVEELVSGVRQAADFAEQFRSYSESEKQWKARMEFILRHLPDYRDPPDGSGRLDQLLSLSMVWANHLFLGCSANKDLLDKVMEMADGIEVEDLPQFTTRSELMKKHQS [Y81A]

Variants of: B2
Conditions: with xrn2_caeel xrn-2, Q9U299

effect of a mutation on the interaction	Variant
disrupting interaction strength	MGKLEDVEAEKKLWESDDAWELRKAFMLAHYDDYPKIQLQCLSQLFINVTLLGAEYSQTLMQKIRTMGAGIAANKDRTKTGSYVKASAAKKRQAVKTSDLEGASDESKKVKMEKSPSPVARESFDERLGKLKASLAMTPHHLTGEQMMKTATNSCLMKWHVNKINQKIEITIDRYVAFRHTFSQYCVDPRDCAINTLIESILSCDAAVHEESYEIRFDGVPVDECYAKSVTRRLAKIKSAVSNGAHTVKGLTTYLDAVNMSMIQNTQKLEGWSQQLDLVTADLLLSSRVLSSTECTKPAMATIANQMSEDVCQLILNDKINVINSMKSHSSLAFQ [C54A]
disrupting interaction strength	MGKLEDVEAEKKLWESDDAWELRKAFMLAHYDDYPKIQLQCLSQLFINVTLLGCEASQTLMQKIRTMGAGIAANKDRTKTGSYVKASAAKKRQAVKTSDLEGASDESKKVKMEKSPSPVARESFDERLGKLKASLAMTPHHLTGEQMMKTATNSCLMKWHVNKINQKIEITIDRYVAFRHTFSQYCVDPRDCAINTLIESILSCDAAVHEESYEIRFDGVPVDECYAKSVTRRLAKIKSAVSNGAHTVKGLTTYLDAVNMSMIQNTQKLEGWSQQLDLVTADLLLSSRVLSSTECTKPAMATIANQMSEDVCQLILNDKINVINSMKSHSSLAFQ [Y56A]

Source: IntAct's records for PubMed 26779609
